Here are results for five molecules from PMC5714612 (Cell Reports, 2017).

B2: mCherry-tagged S135A Syt4 (phosphodeficient) (natural protein, rat, UniProt P50232 1-425, looked up)
chain: MAPITTSRVEFDEIPTVVGIFSAFGLVFTVSLFAWICCQRRSAKSNKTPPYKFVHVLKGVDIYPENLSSKKKFGGDDKSEAKRKAALPNLSLHLDLEKRDLNGNFPKTNPKAGSSSDLENVTPKLFPETEKEAVAPESLKSSTSLTSEEKQEKLGTLFLSLEYNFEKKAFVVNIKEAQGLPAMDEQSMTSDPYIKMTILPEKKHKVKTRVLRKTLDPVFDETFTFYGVPYPHIQELSLHFTVLSFDRFSRDDVIGEVLVPLSGIELSDGKMLMTREIIKRNAKKSSGRGELLVSLCYQSTTNTLTVVVLKARHLPKSDVSGLSDPYVKVNLYHAKKRISKKKTHVKKCTPNAVFNELFVFDIPCESLEEISVEFLVLDSERGSRNEVIGRLVLGATAEGSGGGHWKEICDFPRRQIAKWHMLCDG
B3: mCherry-tagged S135E Syt4 (phosphomimetic) (natural protein, rat, UniProt P50232 1-425, looked up)
chain: MAPITTSRVEFDEIPTVVGIFSAFGLVFTVSLFAWICCQRRSAKSNKTPPYKFVHVLKGVDIYPENLSSKKKFGGDDKSEAKRKAALPNLSLHLDLEKRDLNGNFPKTNPKAGSSSDLENVTPKLFPETEKEAVEPESLKSSTSLTSEEKQEKLGTLFLSLEYNFEKKAFVVNIKEAQGLPAMDEQSMTSDPYIKMTILPEKKHKVKTRVLRKTLDPVFDETFTFYGVPYPHIQELSLHFTVLSFDRFSRDDVIGEVLVPLSGIELSDGKMLMTREIIKRNAKKSSGRGELLVSLCYQSTTNTLTVVVLKARHLPKSDVSGLSDPYVKVNLYHAKKRISKKKTHVKKCTPNAVFNELFVFDIPCESLEEISVEFLVLDSERGSRNEVIGRLVLGATAEGSGGGHWKEICDFPRRQIAKWHMLCDG
B4: Kif1A-GFP (natural protein, rat, UniProt F1M4A4 1-1707, looked up)
chain: MAGASVKVAVRVRPFNSREMSRDSKCIIQMSGSTTTIVNPKQPKETPKSFSFDYSYWSHTSPEDINYASQKQVYRDIGEEMLQHAFEGYNVCIFAYGQTGAGKSYTMMGKQEKDQQGIIPQLCEDLFSRINDTTNDNMSYSVEVSYMEIYCERVRDLLNPKNKGNLRVREHPLLGPYVEDLSKLAVTSYNDIQDLMDSGNKARTVAATNMNETSSRSHAVFNIIFTQKRHDAETNITTEKVSKISLVDLAGSERADSTGAKGTRLKEGANINKSLTTLGKVISALAEMDSGPNKNKKKKKTDFIPYRDSVLTWLLRENLGGNSRTAMVAALSPADINYDETLSTLRYADRAKQIRCNAIINEDPNNKLIRELKDEVTRLRDLLYAQGLGDITDTNTVPGGPKLTNALVGMSPSSSLSALSSRAASVSSLHERILFAPGSEEAIERLKETEKIIAELNETWEEKLRRTEAIRMEREALLAEMGVAMREDGGTLGVFSPKKTPHLVNLNEDPLMSECLLYYIKDGVTRVGREDAERRQDIVLSGHFIKEEHCIFRSDSRGGGEAVVTLEPCEGADTYVNGKKVTEPSILRSGNRIIMGKSHVFRFNHPEQARQERERTPCAETPAEPVDWAFAQRELLEKQGIDMKQEMEQRLQELEDQYRREREEATYLLEQQRLDYESKLEALQKQMDSRYYPEVNEEEEEPEDEVQWTERECELALWAFRKWKWYQFTSLRDLLWGNAIFLKEANAISVELKKKVQFQFVLLTDTLYSPLPPDLLPPEAAKDRETRPFPRTIVAVEVQDQKNGATHYWTLEKLRQRLDLMREMYDRAAEVPSSVVEDCDNVVTGGDPFYDRFPWFRLVGRAFVYLSNLLYPVPLVHRVAIVSEKGEVKGFLRVAVQAISADEEAPDYGSGVRQSGTAKISFDDQHFEKFQSESCPVVGMSRSGTSQEELRIVEGQGQGADAGPSADEVNNNTCSAVPPEGLLDSPEKAALDGPLDTALDHLRLGSTFTFRVTVLQASSISAEYADIFCQFNFIHRHDEAFSTEPLKNTGRGPPLGFYHVQNIAVEVTKSFIEYIKSQPIVFEVFGHYQQHPFPPLCKDVLSPLRPSRRHFPRVMPLSKPVPATKLSTMTRPSPGPCHCKYDLLVYFEICELEANGDYIPAVVDHRGGMPCMGTFLLHQGIQRRITVTLLHETGSHIRWKEVRELVVGRIRNTPETDEALIDPNILSLNILSSGYVHPAQDDRQFLDSDIPRTFYQFEAAWDSSMHNSLLLNRVTPYREKIYMTLSAYIEMENCTQPAVITKDFCMVFYSRDAKLPASRSIRNLFGSGSLRATEGNRVTGVYELSLCHVADAGSPGMQRRRRRVLDTSVAYVRGEENLAGWRPRSDSLILDHQWELEKLSLLQEVEKTRHYLLLREKLETTQRPVPEVLSPASSEDSESRSSSGASSPLSAEGQPSPLEVPNERQRELAVKCLRLLMHTFNREYTHSHVCISASESKLSEMSVTLMRDPSMSPLGAATLTPSSTCPSLIEGRYGATDVRTPQPCSRPASPEPELLPELDSKKTPSPVRATETEKEPQRLLVPDIQEIRVSPIVSKKGYLHFLEPHTAGWAKRFVVVRRPYAYMYNSDKDTVERFVLNLSTAQVEYSEDQQAMLKTPNTFAVCTEHRGILLQANSDKDMHDWLYAFNPLLAGTIRSKLSRRRSAQMRV

For assay [1], the target named is Kif1A (Kif1A-GFP, GST-tagged full-length Kif1A) (UniProt F1M4A4). In words: co-IP with GFP-Trap beads, Syt4 blotted. The note with it: reference: S135A; sites S135.
Assay [2] concerns the target T1, Recombinant His-tagged S135E Syt4 (rat, UniProt P50232 1-425, S135E).
T1 sequence (looked up): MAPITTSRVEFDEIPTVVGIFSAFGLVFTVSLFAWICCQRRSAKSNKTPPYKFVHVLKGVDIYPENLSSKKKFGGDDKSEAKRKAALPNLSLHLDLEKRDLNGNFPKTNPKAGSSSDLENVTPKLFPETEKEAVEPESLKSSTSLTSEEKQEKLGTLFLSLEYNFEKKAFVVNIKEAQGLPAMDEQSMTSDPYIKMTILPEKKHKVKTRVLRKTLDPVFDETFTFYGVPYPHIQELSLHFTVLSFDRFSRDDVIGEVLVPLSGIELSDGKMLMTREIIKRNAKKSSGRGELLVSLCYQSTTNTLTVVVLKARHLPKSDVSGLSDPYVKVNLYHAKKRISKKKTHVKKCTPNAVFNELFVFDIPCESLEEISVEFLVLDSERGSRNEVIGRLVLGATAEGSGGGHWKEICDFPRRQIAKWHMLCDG
In words: pull-down.

The target in the assay “Kif1A-GFP” is B4. In words: co-IP.
Assay [3] concerns the target B2. In words: co-IP.
For assay [4], the target named is B3. In words: co-IP.

For the molecule “Synaptotagmin-4 (Syt4) (from UniProt P50232) S135E”, in assay [1], the “other: percent of WT” value is “weaker; reference 134.4 ± 11.1”.

B1: endogenous Kif1A (natural protein, UniProt P33173 1-1695, looked up)
chain: MAGASVKVAVRVRPFNSREMSRDSKCIIQMSGSTTTIVNPKQPKETPKSFSFDYSYWSHTSPEDINYASQKQVYRDIGEEMLQHAFEGYNVCIFAYGQTGAGKSYTMMGKQEKDQQGIIPQLCEDLFSRINDTTNDNMSYSVEVSYMEIYCERVRDLLNPKNKGNLRVREHPLLGPYVEDLSKLAVTSYNDIQDLMDSGNKPRTVAATNMNETSSRSHAVFNIIFTQKRHDAETNITTEKVSKISLVDLAGSERADSTGAKGTRLKEGANINKSLTTLGKVISALAEMDSGPNKNKKKKKTDFIPYRDSVLTWLLRENLGGNSRTAMVAALSPADINYDETLSTLRYADRAKQIRCNAIINEDPNNKLIRELKDEVTRLRDLLYAQGLGDITDMTNALVGMSPSSSLSALSSRAASVSSLHERILFAPGSEEAIERLKETEKIIAELNETWEEKLRRTEAIRMEREALLAEMGVAMREDGGTLGVFSPKKTPHLVNLNEDPLMSECLLYYIKDGVTRVGREDAERRQDIVLSGHFIKEEHCIFRSDSRGGGEAVVTLEPCEGADTYVNGKKVTEPSILRSGNRIIMGKSHVFRFNHPEQARQERERTPCAETPAEPVDWAFAQRELLEKQGIDMKQEMEQRLQELEDQYRREREEATYLLEQQRLDYESKLEALQKQMDSRYYPEVNEEEEEPEDEVQWTERECELALWAFRKWKWYQFTSLRDLLWGNAIFLKEANAISVELKKKVQFQFVLLTDTLYSPLPPDLLPPEAAKDRETRPFPRTIVAVEVQDQKNGATHYWTLEKLRQRLDLMREMYDRAAEVPSSVVEDCDNVVTGGDPFYDRFPWFRLVGRAFVYLSNLLYPVPLVHRVAIVSEKGEVKGFLRVAVQAISADEEAPDYGSGVRQSGTAKISFDDQHFEKFQSESCPVVGMSRSGTSQEELRIVEGQGQGADAGPSADEVNNNTCSAVPPEGLMDSPEKAALDGPLDTALDHLRLGSTFTFRVTVLQASSISAEYADIFCQFNFIHRHDEAFSTEPLKNTGRGPPLGFYHVQNIAVEVTKSFIEYIKSQPIVFEVFGHYQQHPFPPLCKDVLSPLRPSRRHFPRVMPLSKPVPATKLSTMTRPSPGPCHCKYDLLVYFEICELEANGDYIPAVVDHRGACMGTFLLHQGIQRRITVTLLHETGSHIRWKEVRELVVGRIRNTPETDEALIDPNILSLNILSSGYVHPAQDDRVFFGNDTRTFYQFEAAWDSSMHNSLLLNRVTPYREKIYMTLSAYIEMENCTQPAVITKDFCMVFYSRDAKLPASRSIRNLFGSGSLRATEGNRVTGVYELSLCHVADAGSPGMQRRRRRVLDTSVAYVRGEENLAGWRPRSDSLILDHQWELEKLSLLQEVEKTRHYLLLREKLETTQRPGPEVLSPASSEDSESRSSSGASSPLSAEGQPSPLEAPNERQRELAVKCLRLLMHTFNREYTHSHVCISASESKLSEMSVTLMRDPSMSPLGAATLTPSSTCPSLIEGRYGATDVRTPQPCSRPASPEPELLPELDSKKTPSPVRATETEKEPQRLLVPDIQEIRVSPIVSKKGYLHFLEPHTAGWAKRFVVVRRPYAYMYNSDKDTVERFVLNLSTAQVEYSEDQQAMLKTPNTFAVCTEHRGILLQANSDKDMHDWLYAFNPLLAGTIRSKLSRRRSAQMRV
B1: in assay [2], the “amount pulled down, percent of WT” value was 43.6 % of WT.
On to B2, for which, in the assay with Kif1A-GFP, the “amount co-immunoprecipitated, percent of WT” value is 134 % of WT.
For B3, in the assay with Kif1A-GFP, the “amount co-immunoprecipitated, percent of WT” value is 42.9 % of WT.
In the case of B4, the “amount co-immunoprecipitated, percent of WT” value in assay [3] was 158 % of WT; in assay [4] it was 87 % of WT.
